Data from patent publication US20230067811A1, “MODULATING LYMPHATIC VESSELS IN NEUROLOGICAL DISEASE” (University of Virginia Patent Foundation, priority 2020, published 2023).

B1: VEGF-c: VEGFR3 agonist polypeptide (SEQ ID NO: 1), flow modulator; in Examples 1-3 delivered by AAV1 vector expressing VEGF-c (protein, listed as Homo sapiens)
chain: MHLLGFFSVACSLLAAALLPGPREAPAAAAAFESGLDLSDAEPDAGEATAYASKDLEEQLRSVSSVDELMTVLYPEYWKMYKCQLRKGGWQHNREQANLNSRTEETIKFAAAHYNTEILKSIDNEWRKTQCMPREVCIDVGKEFGVATNTFFKPPCVSVYRCGGCCNSEGLQCMNTSTSYLSKTLFEITVPLSQGPKPVTISFANHTSCRCMSKLDVYRQVHSIIRRSLPATLPQCQAANKTCPTNYMWNNHICRCLAQEDFMFSSDAGDDSTDGFHDICGPNKELDEETCQCVCRAGLRPASCGPHKELDRNSCQCVCKNKLFPSQCGANREFDENTCQCVCKRTCPRNQPLNPGKCACECTESPQKCLLKGKKFHHQTCSCYRRPCTNRQKACEPGFSYSEEVCRCVPSYWKRPQMS

What was measured:
human LECs = experiment: Human LECs incubated with Aβ42, bulk RNA-seq; assay type: cell-based; conditions: 100 nM, 24 h, vs scrambled peptide
Description: To determine whether the increased levels of Aβ alone could account for the observed changes in the LEC transcriptome, human LECs were incubated with 100 nM human Aβ1-42 (a monomeric/dimeric preparation) or control scrambled human Aβ1-42 peptide for 24 or 72 h (FIG. 5J).
Cultures of human LECs. […]
Bulk RNA sequencing. […] The mergedfastq files were then chastity filtered to remove low quality bases, trimmed using the trimmomatic software, and mapped to the UCSC […] genome using Salmon (Harrow, J. et al. GENCODE: the reference human genome annotation for The ENCODE Project. Genome Res 22, 1760-1774, (2012); Patro, R., Duggal, G., Love, M. I., Irizarry, R. A. & Kingsford, C. Salmon provides fast and bias-aware quantification of transcript expression. Nat Methods 14, 417-419, (2017)). […] The resulting transcript abundances were read into R and summarized using tximport (Soneson, C., Love, M. I. & Robinson, M. D. Differential analyses for RNA-seq: transcript-level estimates improve gene-level inferences. F1000Res 4, 1521, (2015)). […]

APPswe mice = experiment: Brain Aβ plaques in aged APPswe mice after i.c.m. AAV1-mVEGF-C plus anti-Abeta antibody; assay type: in vivo, mouse; conditions: with anti-amyloid beta antibody, vs eGFP vector
Source text: Age of APPswe mice and treatment regimen of anti-amyloid beta antibody with AA1 vector expressing VEGF-c or eGFB via i.c.m are shown in FIG. 3A. Results of behavioral tests (open field (OF), novel location recognition (NLR) and contextual fear conditioning (CFC)) are shown in FIGS. 3B-3D. […] Time investigating one of the object location (% of total time investigating objects) in the training trial and time investigating the novel object location (% of total time investigating) in the NLR test are shown in FIG. 3C. Representative images of the brain sections of APPswe mice treated with anti-Abeta antibody and with AAV1-CMV-eGFP or AAV1-CMV-mVEGF-C are shown in FIG. 3E. Brain sections were stained for Aβ and with DAPI; scale bar, 1 mm. FIGS. 3F-3G show plaque density (number of plaques per mm^2), average size (m^2) and coverage (% of brain section) in the cortex and amygdala or in the hippocampus. Results in FIGS. 3B-3D, 3F, and 3G are presented as mean s.e.m.; n=11 per group; Two-tailed unpaired Student's T test.
Intra-cisterna magna and intravenous injections. Mice were anaesthetized by intraperitoneal (i.p.) injection of a mixed solution of ketamine (100 mg/Kg) and xylazine (10 mg/Kg) in saline. […]
Immunohistochemistry, imaging and quantifications. […]

[1] = test system: meningeal lymphatic vessels; conditions: Example 4 of WO2017/210343; cited from earlier work
5×FAD mice = experiment: Meningeal lymphatic and blood vessel morphology after i.c.m. AAV1-mVEGF-C plus anti-Abeta antibody; assay type: in vivo, mouse; conditions: adult 5×FAD mice, AAV1 vector i.c.m., meningeal whole mounts
Description: Adult 5×FAD mice were treated with a combination of VEGF-c and an antibody that binds amyloid beta (ABETA Mab1) administered into the cisterna magna (i.c.m). After administration of AAV1 vector expressing VEGF-c or eGFP and the antibody according to schematic shown in FIG. 1A, brain and meningeal morphology was observed. Representative images of the meningeal whole-mounts of 5×FAD mice treated with different combinations of mIgG2a or monoclonal anti-amyloid beta antibody (“ABETA Ab”) with AAV1-CMV-eGFP or AAV1-CMV-mVEGF-C are shown in FIG. 1B. Meninges were stained for LYVE-1 and CD31; scale bar, 1 mm; inset, 300 m (FIG. 1B) Measurements of transverse sinus diameter, coverage by LYVE-1negCD31^+ blood vessels, total number of lymphatic branches, transverse sinus lymphatic vessel diameter and coverage by LYVE-1+ lymphatic vessels (See FIGS. 1C-1G). Results in FIGS. 1C-1G are presented as mean±s.e.m.; n=7 in eGFP+mIgG2a, n=6 in eGFP+ABETA Ab, in mVEGF-C+mIgG2a and in mVEGF-C+ABETA Ab; Two-way ANOVA with Sidak's multiple comparison test. In FIGS. 1D and 1G, the units for the Y-axis are percentage of field of view (“% FOV”).
Science 352, 712-716, (2016)) or microhemorrhages in the brain and meninges (Salloway, S. et al. Two phase 3 trials of bapineuzumab in mild-to-moderate Alzheimer's disease. […]

Row | Molecule | gene expression in human LECs (human LECs) | number of plaques in the cortex and amygdala (APPswe mice) | number of plaques in the hippocampus (APPswe mice) | diameters of meningeal lymphatic vessels [1] | lymphatic diameter (5×FAD mice)
1 | Aβ1-42: synthetic monomeric/dimeric human amyloid beta 1-42 peptides (Anaspec AS-20276) | Changes in gene expression |  |  |  | 
2 | B1 |  | reduced the number of plaques | reduced the number of plaques | increase the diameters of meningeal lymphatic vessels | increased lymphatic diameter
